The sequences below were run on Escherichia coli TOP10 (assay: shrunken log2 fold change of peptide-encoding DNA abundance (4.5 h post-induction vs induction); higher = less antimicrobial activity (less host growth inhibition)). Settings: time post-induction: 4.5 h; library: site-saturation at positions 5, 18, 19, 20.
For RRIRGRPPRLPRPRPRPFGRPRP, the “shrunken log2 fold change” value was -0.0748. RRIRIRPPRLPRPRPRPYDIPRP was tested, and the “shrunken log2 fold change” value was -0.0903. For RRIRERPPRLPRPRPRPDTCPRP, the “shrunken log2 fold change” value was -0.0337. For RRIRMRPPRLPRPRPRPHIIPRP, the “shrunken log2 fold change” value was -0.991. In the case of RRIRVRPPRLPRPRPRPPMQPRP, the “shrunken log2 fold change” value is reported as 0.152. RRIRPRPPRLPRPRPRPCRGPRP was tested, and the “shrunken log2 fold change” value was -0.322. In the case of RRIRMRPPRLPRPRPRPCFKPRP, the “shrunken log2 fold change” value is reported as 0.145. With RRIRDRPPRLPRPRPRPYWMPRP the “shrunken log2 fold change” value was -0.541. For RRIRARPPRLPRPRPRPTMWPRP, the “shrunken log2 fold change” value was 0.516. In the case of RRIRLRPPRLPRPRPRPDVSPRP, the “shrunken log2 fold change” value is reported as 0.0432. In the case of RRIRSRPPRLPRPRPRPFEGPRP, the “shrunken log2 fold change” value is reported as 0.123. RRIRARPPRLPRPRPRPQCYPRP was tested, and the “shrunken log2 fold change” value was -0.0761. In the case of RRIRIRPPRLPRPRPRPPVVPRP, the “shrunken log2 fold change” value is reported as 0.0726. In the case of RRIRSRPPRLPRPRPRPQTKPRP, the “shrunken log2 fold change” value is reported as -0.0915. For RRIRTRPPRLPRPRPRPVGTPRP, the “shrunken log2 fold change” value was -0.201. For RRIRVRPPRLPRPRPRPPDGPRP, the “shrunken log2 fold change” value was 0.422. RRIRYRPPRLPRPRPRPHGPPRP was tested, and the “shrunken log2 fold change” value was -0.239. In the case of RRIRFRPPRLPRPRPRPGENPRP, the “shrunken log2 fold change” value is reported as 0.995. For RRIRPRPPRLPRPRPRPCHLPRP, the “shrunken log2 fold change” value was -0.148. For RRIRMRPPRLPRPRPRPLITPRP, the “shrunken log2 fold change” value was 0.0495. For RRIRRRPPRLPRPRPRPVYTPRP, the “shrunken log2 fold change” value was 0.0292. For RRIRIRPPRLPRPRPRPYFFPRP, the “shrunken log2 fold change” value was -0.875. In the case of RRIRNRPPRLPRPRPRPNLFPRP, the “shrunken log2 fold change” value is reported as -0.225. With RRIRERPPRLPRPRPRPAALPRP the “shrunken log2 fold change” value was -0.0784. RRIRIRPPRLPRPRPRPYCDPRP was tested, and the “shrunken log2 fold change” value was -0.0269. For RRIRLRPPRLPRPRPRPKRAPRP, the “shrunken log2 fold change” value was 0.203. With RRIRVRPPRLPRPRPRPAQWPRP the “shrunken log2 fold change” value was 0.188. RRIRIRPPRLPRPRPRPWSGPRP was tested, and the “shrunken log2 fold change” value was -0.139. RRIRQRPPRLPRPRPRPALDPRP was tested, and the “shrunken log2 fold change” value was 0.296. RRIRFRPPRLPRPRPRPQTAPRP was tested, and the “shrunken log2 fold change” value was -0.337. For RRIRIRPPRLPRPRPRPNTDPRP, the “shrunken log2 fold change” value was -0.703. For RRIRTRPPRLPRPRPRPEEDPRP, the “shrunken log2 fold change” value was -0.00174. RRIRPRPPRLPRPRPRPYFIPRP was tested, and the “shrunken log2 fold change” value was -0.656. In the case of RRIRERPPRLPRPRPRPVSPPRP, the “shrunken log2 fold change” value is reported as -0.33. With RRIRCRPPRLPRPRPRPQSFPRP the “shrunken log2 fold change” value was -0.253. RRIRYRPPRLPRPRPRPVVRPRP was tested, and the “shrunken log2 fold change” value was -0.203. RRIRGRPPRLPRPRPRPDPGPRP was tested, and the “shrunken log2 fold change” value was 0.616. RRIRQRPPRLPRPRPRPTIVPRP was tested, and the “shrunken log2 fold change” value was -0.119. In the case of RRIRCRPPRLPRPRPRPYMLPRP, the “shrunken log2 fold change” value is reported as -1.06. For RRIRMRPPRLPRPRPRPPDRPRP, the “shrunken log2 fold change” value was 1.26. For RRIRQRPPRLPRPRPRPYCNPRP, the “shrunken log2 fold change” value was -1.38. With RRIRNRPPRLPRPRPRPISSPRP the “shrunken log2 fold change” value was -0.0365. With RRIRYRPPRLPRPRPRPTGNPRP the “shrunken log2 fold change” value was -0.858. In the case of RRIRARPPRLPRPRPRPSAQPRP, the “shrunken log2 fold change” value is reported as 0.96. With RRIRWRPPRLPRPRPRPYMKPRP the “shrunken log2 fold change” value was -0.459. With RRIRARPPRLPRPRPRPISDPRP the “shrunken log2 fold change” value was 0.266. With RRIRTRPPRLPRPRPRPYGDPRP the “shrunken log2 fold change” value was 0.00839. RRIRPRPPRLPRPRPRPTKGPRP was tested, and the “shrunken log2 fold change” value was 0.0911. For RRIRWRPPRLPRPRPRPLPDPRP, the “shrunken log2 fold change” value was 0.672. RRIRPRPPRLPRPRPRPRDMPRP was tested, and the “shrunken log2 fold change” value was 0.201. RRIRIRPPRLPRPRPRPIQEPRP was tested, and the “shrunken log2 fold change” value was 0.0527. In the case of RRIRYRPPRLPRPRPRPGYHPRP, the “shrunken log2 fold change” value is reported as -0.00992. RRIRFRPPRLPRPRPRPSICPRP was tested, and the “shrunken log2 fold change” value was -0.636. In the case of RRIRVRPPRLPRPRPRPAVDPRP, the “shrunken log2 fold change” value is reported as 0.192. For RRIRNRPPRLPRPRPRPVLMPRP, the “shrunken log2 fold change” value was -0.14. In the case of RRIRMRPPRLPRPRPRPHFVPRP, the “shrunken log2 fold change” value is reported as -0.025. In the case of RRIRKRPPRLPRPRPRPNREPRP, the “shrunken log2 fold change” value is reported as 0.0158. In the case of RRIRMRPPRLPRPRPRPIYSPRP, the “shrunken log2 fold change” value is reported as -0.0833. RRIRHRPPRLPRPRPRPVCRPRP was tested, and the “shrunken log2 fold change” value was -0.3. In the case of RRIRSRPPRLPRPRPRPDADPRP, the “shrunken log2 fold change” value is reported as -0.0578. In the case of RRIRYRPPRLPRPRPRPRGTPRP, the “shrunken log2 fold change” value is reported as 0.173. With RRIRKRPPRLPRPRPRPVQMPRP the “shrunken log2 fold change” value was 0.241. RRIRDRPPRLPRPRPRPVPCPRP was tested, and the “shrunken log2 fold change” value was 0.0758. For RRIRARPPRLPRPRPRPLCTPRP, the “shrunken log2 fold change” value was 0.223. For RRIRWRPPRLPRPRPRPNFYPRP, the “shrunken log2 fold change” value was -0.232. In the case of RRIRWRPPRLPRPRPRPYFHPRP, the “shrunken log2 fold change” value is reported as -0.625. With RRIRCRPPRLPRPRPRPDCKPRP the “shrunken log2 fold change” value was -0.392. RRIRPRPPRLPRPRPRPNWDPRP was tested, and the “shrunken log2 fold change” value was 0.0377. RRIRMRPPRLPRPRPRPRVKPRP was tested, and the “shrunken log2 fold change” value was 0.494. With RRIRYRPPRLPRPRPRPWSSPRP the “shrunken log2 fold change” value was 0.0132. RRIRNRPPRLPRPRPRPWQWPRP was tested, and the “shrunken log2 fold change” value was 0.144. For RRIRRRPPRLPRPRPRPVKMPRP, the “shrunken log2 fold change” value was 0.101. RRIRWRPPRLPRPRPRPNSEPRP was tested, and the “shrunken log2 fold change” value was -0.071. With RRIRVRPPRLPRPRPRPNIGPRP the “shrunken log2 fold change” value was -0.0964. With RRIRQRPPRLPRPRPRPHMAPRP the “shrunken log2 fold change” value was -0.0694.
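Further: peptides expressed intracellularly from a pBAD plasmid library in pooled LB shake-flask culture, induced with 0.3% L-arabinose, DNA abundance read by NGS, three biological replicates, DESeq2 with apeglm shrinkage.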
